# Measurements taken from patent publication US20170008955A1 (CNJ, published 2017).
# Residue numbers refer to the chain shown, from its start. Names may count otherwise.
# B1: 5E3HCDR1-S184D (antibody, V domains shown)
# VH: QVQLQQSGPEVKKPGASVKISCKASGYIFTDYYIQWVIHAPGQGLEWIGWIYPGNVNTKYNEKFKGKATLTADKSSSTAYMELSSLTSEDTAVYFCARMDYEAHYWGQGTTVTVSS
# VL: DIQMTQSPSSLSASVGDRVTITCRASQEISGYLTWLQQKPEGAIKRLIYAASTLDSGVPKRFSGSRSGSDYSLTISSLQPEDFATYNCLQYANYPRTFGGGTKLEIK
# notes: hu5E3 IgG1 vector mutant; also called 5E3-S184D-AFF
# B2: 5E3KCDR3-N93D + 5E3HCDR3-Y212F (antibody, IgG1, V domains shown)
# VH: B1 VH with D31S, Y105F
# VL: B1 VL with N93D
# notes: double combination in hu5E3 IgG1
# B3: 5E3KCDR3-A116Y (antibody, IgG1, V domains shown)
# VH: B1 VH with D31S
# VL: B1 VL with A92Y
# notes: hu5E3 IgG1 vector mutant
# B4: 5E3KCDR3-N93Q + 5E3HCDR3-Y212F (antibody, IgG1, V domains shown)
# VH: B1 VH with D31S, Y105F
# VL: B1 VL with N93Q
# notes: as for B2
# B5: 5E3KCDR3-N93D (antibody, IgG1, V domains shown)
# VH: B1 VH with D31S
# VL: B1 VL with N93D
# notes: hu5E3 IgG1 vector mutant; same change as 5E3KCDR3-N117D
# B6: 5E3HCDR3-E209D (antibody, IgG1, V domains shown)
# VH: B1 VH with D31S, E102D
# VL: B1 VL
# notes: hu5E3 IgG1 vector mutant; same change as 5E3HCDR3-E255D
# B7: 5E3HCDR3-Y212F (antibody, IgG1, V domains shown)
# VH: B1 VH with D31S, Y105F
# VL: B1 VL
# notes: hu5E3 IgG1 vector mutant
# B8: 5E3HCDR3-Y208F (antibody, IgG1, V domains shown)
# VH: B1 VH with D31S, Y101F
# VL: B1 VL
# notes: hu5E3 IgG1 vector mutant
# B9: 5E3HCDR3-E209Q (antibody, IgG1, V domains shown)
# VH: B1 VH with D31S, E102Q
# VL: B1 VL
# notes: hu5E3 IgG1 vector mutant
# B10: 5E3HCDR3-E255D (antibody, IgG1, V domains shown)
# VH: B1 VH with D31S, E102D
# VL: B1 VL
# notes: hu5E3 IgG1 vector mutant; same change as 5E3HCDR3-E209D; also called 5E3-E255D-AFF
# B11: 5E3KCDR3-N93Q (antibody, IgG1, V domains shown)
# VH: B1 VH with D31S
# VL: B1 VL with N93Q
# notes: hu5E3 IgG1 vector mutant
# B12: 5E3KCDR3-L89I (antibody, IgG1, V domains shown)
# VH: B1 VH with D31S
# VL: B1 VL with L89I
# notes: hu5E3 IgG1 vector mutant
# B13: 5E3HCDR2-K212D (antibody, IgG1, V domains shown)
# VH: B1 VH with D31S, K59D
# VL: B1 VL
# notes: hu5E3 IgG1 vector mutant; also called 5E3-K212D-AFF
# B14: 5E3KCDR2-S80D (antibody, IgG1, V domains shown)
# VH: B1 VH with D31S
# VL: B1 VL with S56D
# notes: hu5E3 IgG1 vector mutant; also called 5E3-S80D-AFF
# B15: 5E3KCDR3-L89I + 5E3HCDR3-Y212F (antibody, IgG1, V domains shown)
# VH: B1 VH with D31S, Y105F
# VL: B1 VL with L89I
# notes: as for B2
# B16: 5E3KCDR2-G81D (antibody, IgG1, V domains shown)
# VH: B1 VH with D31S
# VL: B1 VL with G57D
# notes: hu5E3 IgG1 vector mutant; also called 5E3-G81D-AFF
# B17: 5E3KCDR2-A74D (antibody, IgG1, V domains shown)
# VH: B1 VH with D31S
# VL: B1 VL with A50D
# notes: hu5E3 IgG1 vector mutant; also called 5E3-A74D-AFF
# B18: 5E3HCDR3-A210G (antibody, IgG1, V domains shown)
# VH: B1 VH with D31S, A103G
# VL: B1 VL
# notes: hu5E3 IgG1 vector mutant
# B19: 5E3KCDR2-S80Y (antibody, IgG1, V domains shown)
# VH: B1 VH with D31S
# VL: B1 VL with S56Y
# notes: hu5E3 IgG1 vector mutant
# B20: 5E3HCDR2-V209Y (antibody, IgG1, V domains shown)
# VH: B1 VH with D31S, V56Y
# VL: B1 VL
# notes: hu5E3 IgG1 vector mutant
# B21: HuΔ5E3-IgG1 (KQA) (antibody, V domains shown)
# VH: B1 VH with D31S, I38K, H39Q
# VL: B1 VL
# notes: human IgG1; also called huΔ5E3 KQA Mutation
# B22: HuΔ5E3-IgG1 (IQR) (antibody, V domains shown)
# VH: B1 VH with D31S, H39Q, A40R
# VL: B1 VL
# notes: human IgG1; also called huΔ5E3 IQR Mutation
# B23: HuΔ5E3-IgG1 (KHA) (antibody, V domains shown)
# VH: B1 VH with D31S, I38K
# VL: B1 VL
# notes: human IgG1; also called huΔ5E3 KHA Mutation
# B24: HuΔ5E3-IgG2 (KQR) (antibody, V domains shown)
# VH: B1 VH with D31S, I38K, H39Q, A40R
# VL: B1 VL
# notes: KQR framework 2 variant of hu5E3 on human IgG2
# B25: HuΔ5E3-IgG1 (IHR) (antibody, V domains shown)
# VH: B1 VH with D31S, A40R
# VL: B1 VL
# notes: human IgG1; also called huΔ5E3 IHR Mutation
# B26: HuΔ5E3-IgG4 (KQR) (antibody, V domains shown)
# VH: B1 VH with D31S, I38K, H39Q, A40R
# VL: B1 VL
# notes: KQR framework 2 variant of hu5E3 on human IgG4
# B27: HuΔ5E3-IgG1 (KQR) (antibody, V domains shown)
# VH: B1 VH with D31S, I38K, H39Q, A40R
# VL: B1 VL
# notes: human IgG1; also called hu5E3 IgG1 KQR; huΔ5E3 KQR Mutation
# B28: 5E3KCDR3-Y94F (antibody, IgG1, V domains shown)
# VH: B1 VH with D31S
# VL: B1 VL with Y94F
# notes: hu5E3 IgG1 vector mutant
# B29: 5E3KCDR3-Y91F (antibody, IgG1, V domains shown)
# VH: B1 VH with D31S
# VL: B1 VL with Y91F
# notes: hu5E3 IgG1 vector mutant
# B30: 5E3KCDR3-L89I + 5E3HCDR3-E209Q (antibody, IgG1, V domains shown)
# VH: B1 VH with D31S, E102Q
# VL: B1 VL with L89I
# notes: as for B2
# Target: T1, cSNK:BSA conjugate (bovine, head-to-tail cyclized; conjugated to BSA carrier)
# T1 construct: also called BSA-cSNK
# T1 sequence (P02769 25-607 limits assumed): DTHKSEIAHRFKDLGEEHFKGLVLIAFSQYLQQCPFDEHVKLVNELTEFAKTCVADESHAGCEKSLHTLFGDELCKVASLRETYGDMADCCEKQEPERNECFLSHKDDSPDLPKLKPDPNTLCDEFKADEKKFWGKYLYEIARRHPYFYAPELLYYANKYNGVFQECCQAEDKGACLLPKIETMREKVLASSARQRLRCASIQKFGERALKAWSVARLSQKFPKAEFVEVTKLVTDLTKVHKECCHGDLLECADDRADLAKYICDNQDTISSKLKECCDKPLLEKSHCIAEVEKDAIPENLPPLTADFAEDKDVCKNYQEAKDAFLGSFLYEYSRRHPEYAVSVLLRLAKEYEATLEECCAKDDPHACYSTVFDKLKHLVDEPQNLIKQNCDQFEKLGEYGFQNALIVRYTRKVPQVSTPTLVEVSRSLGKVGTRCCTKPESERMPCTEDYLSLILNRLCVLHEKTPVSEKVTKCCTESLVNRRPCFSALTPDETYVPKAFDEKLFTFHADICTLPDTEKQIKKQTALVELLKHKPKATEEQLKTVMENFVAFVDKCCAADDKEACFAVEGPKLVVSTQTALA
# Assay: BLI (Octet), KD2
row,Kd,Binder
1,3.41 nM,B1
2,2.41 nM,B2
3,1.93 nM,B3
4,2.8 nM,B4
5,9.9 nM,B5
6,9.13 nM,B6
7,8.25 nM,B7
8,0.001 nM,B8
9,6.05 nM,B9
10,2.57 nM,B10
11,0.76 nM,B11
12,17.4 nM,B12
13,2.36 nM,B13
14,3.95 nM,B14
15,4.2 nM,B15
16,2.33 nM,B16
17,3.06 nM,B17
18,9.97 nM,B18
19,3.05 nM,B19
20,2.4 nM,B20

# Target: T1, cSNK:BSA conjugate
# Assay: BLI (Octet), 1:1 model, BSA-cSNK
# Experimental: Biolayer interferometry (Octet Red92, ForteBio) was used to qualitatively/quantitatively assess the interactions between humanized 5E3 and Δ5E3 mAbs to the cSNK:BSA conjugate. […] MAbs were loaded onto sensors and then washed in PBST. Each sensor was associated with one of several cSNK:BSA standards (100 nM to 0 nM) and then washed in PBST. Data was processed statistically using ForteBio Data Analysis software to determine the strength of antigen-antibody binding (KD). For each mAb analyzed, a 1:1 model provided the “best fit”.
row,Kd,Binder
1,1.28 nM,B21
2,1.26 nM,B22
3,1.52 nM,B23
4,0.226 nM,B24
5,1.43 nM,B25
6,1.04 nM,B26
7,1.88 nM,B27

# Target: T1, cSNK:BSA conjugate
# Assay: BLI (Octet), compared to hu5E3
row,binding result,Binder
1,no binding (tested: 100 nM),B28
2,no binding (tested: 100 nM),B29

# Target: T1, cSNK:BSA conjugate
# Assay: BLI (Octet), KD1
row,Kd,Binder
1,0.214 nM,B1
2,0.0194 nM,B2
3,< 0.001 nM,B3
4,0.0201 nM,B4
5,4.25 nM,B5
6,3.21 nM,B6
7,1.58 nM,B7
8,21.5 nM,B8
9,1.86 nM,B9
10,0.0333 nM,B10
11,19.8 nM,B30
12,9.12 nM,B11
13,1.62 nM,B12
14,0.0171 nM,B13
15,0.0269 nM,B14
16,0.021 nM,B15
17,0.0192 nM,B16
18,0.302 nM,B17
19,1.73 nM,B18
20,0.0138 nM,B19
21,0.0107 nM,B20
